Data as given in publication PMC5585275.

Molecular target: pre-translocation (PRE) complex of the E. coli 70S ribosome (E. coli) (UniProt P0A7K2)
Test: stopped-flow fluorescence and FRET kinetics, global fit by numerical integration; PRE complexes (0.05 uM, six fluorescence reporters) mixed with saturating EF-G (4-5 uM), 1 mM GTP, 200 uM fusidic acid; buffer A (50 mM Tris-HCl pH 7.5, 70 mM NH4Cl, 30 mM KCl, 7 mM MgCl2), 37 °C; 5-step model, k-1/k1 constrained to 65/55 uM; KinTek Explorer

elongation factor G (from UniProt P0A6M8 1-704) (enzyme)
kon: 4.2e+07 M⁻¹ s⁻¹
